How the values were obtained:
[1] = target: T1, VCX; peptide VCX-23 peptide on HLA-A*11:01 (human); assay: killing
T1 peptide: SSQPSPSDPK

[2] = target: T2, VCY (Variable charge Y-linked) CT antigen; peptide VCY-23 peptide on HLA-A*11:01 (human); assay: multimer staining
T2 peptide: SSQPSPSGPK

binding result [2]: recognises
B1: VCY-23 specific TCR (TCR, V domains shown)
Valpha: RKEVEQDPGPFNVPEGATVAFNCTYSNSASQSFFWYRQDCRKEPKLLMSVYSSGNEDGRFTAQLNRASQYISLLIRDSKLSDSATYLCVVTFDNYGQNFVFGPGTRLSVLP
Vbeta: NAGVTQTPKFRVLKTGQSMTLLCAQDMNHEYMYWYRQDPGMGLRLIHYSVGEGTTAKGEVPDGYNVSRLKKQNFLLGLESAAPSQTSVYFCASSYTYNYNEQFFGPGTRLTVL
binding result [1]: no recognition
